Measurements published in patent US20110091968A1 (KABUSHIKI KAISHA HAYASHIBARA SEIBUTSU KAGAKU KENKYUJO, published 2011).
One block for each binder: values may come before it.

How the values were obtained:
Assay in all cases: Western blotting
[1] = target: T1, human IFNγ (human, UniProt P01579 24-166, limits assumed)
T1 sequence (looked up): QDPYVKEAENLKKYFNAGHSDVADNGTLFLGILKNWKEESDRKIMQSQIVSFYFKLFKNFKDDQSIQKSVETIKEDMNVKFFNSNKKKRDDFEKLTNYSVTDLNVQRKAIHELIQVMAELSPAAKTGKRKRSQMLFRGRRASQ

[2] = target: human IFNβ (human, UniProt P01574 22-187)
Sequence of human IFNβ (P01574 22-187 limits assumed): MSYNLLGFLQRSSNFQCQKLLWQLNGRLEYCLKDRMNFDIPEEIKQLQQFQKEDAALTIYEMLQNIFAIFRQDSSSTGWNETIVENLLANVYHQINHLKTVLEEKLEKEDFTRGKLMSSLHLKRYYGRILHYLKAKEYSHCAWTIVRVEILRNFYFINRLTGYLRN

[3] = target: T2, human tumor necrosis factor (human, UniProt P01375 77-233)
T2 construct: also called human TNFα; TNFα
T2 sequence (P01375 77-233 limits assumed): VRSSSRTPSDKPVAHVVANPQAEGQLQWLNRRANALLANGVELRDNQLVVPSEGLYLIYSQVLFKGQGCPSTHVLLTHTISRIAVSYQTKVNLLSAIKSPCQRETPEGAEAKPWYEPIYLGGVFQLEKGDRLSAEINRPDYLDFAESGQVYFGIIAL

[4] = target: T3, recombinant human IFNα subtype α5 (human, UniProt P01569 24-189, limits assumed)
T3 construct: also called rIFNα5; IFNα5
T3 sequence (P01569 24-189 limits assumed): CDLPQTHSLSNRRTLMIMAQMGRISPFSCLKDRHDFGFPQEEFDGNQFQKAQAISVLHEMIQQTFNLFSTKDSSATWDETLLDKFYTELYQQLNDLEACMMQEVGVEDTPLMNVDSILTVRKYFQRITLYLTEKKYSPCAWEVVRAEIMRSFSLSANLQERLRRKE
Excerpt: (§1) Proteins, contained in a part of the gel ranging from about 20 to about 29 kilo daltons (abbreviated as “kDa”, hereinafter) corresponding to the molecular weights of the proteins of IFNs, were transferred to a nitrocellulose membrane and soaked in “BlockAce”, a product name of a blocking solution to inhibit non-specific reaction commercialized by Dainippon Sumitomo Pharma, Co., Ltd., Tokyo, Japan. The resulting nitrocellulose membrane after the blocking treatment was soaked in a solution, containing 2 μg/ml of any of the nine monoclonal antibodies purified by using PROTEIN G SEPHAROSE, at ambient temperature for one hour, and washed with 50 mM Tris-HCl buffer (pH 7.5) containing 0.05% (v/v) tween 20 to remove excessive amounts of antibodies. The resulting nitrocellulose membrane was soaked in a solution containing an HRP labelled anti-mouse immunoglobulin or anti-rat immunoglobulin (both of which are commercialized by DakoCytomation, Denmark) at ambient temperature for one hour. The resulting membrane was washed with 50 mM Tris-HCl buffer (pH 7.5) containing 0.05% (v/v) tween 20 for 30 min and subjected to a color reaction by using commercialized “ECL western blotting detection reagent and Hyperfilm ECL”, a product name of a Western blotting detection kit commercialized by GE Healthcare Biosciences, Tokyo, Japan.

[5] = target: T4, recombinant human IFNα subtype α6 (human, UniProt P05013 24-189, limits assumed)
T4 construct: also called rIFNα6; IFNα6
T4 sequence (P05013 24-189 limits assumed): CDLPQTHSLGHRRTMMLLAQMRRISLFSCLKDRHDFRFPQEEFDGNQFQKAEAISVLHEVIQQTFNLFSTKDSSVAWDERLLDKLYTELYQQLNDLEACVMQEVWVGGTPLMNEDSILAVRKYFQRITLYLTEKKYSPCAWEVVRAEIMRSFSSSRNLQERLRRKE
Excerpt: as §1

[6] = target: T5, recombinant human IFNα subtype α10 (human, UniProt P01566 24-189)
T5 construct: also called rIFNα10; IFNα10
T5 sequence (P01566 24-189 limits assumed): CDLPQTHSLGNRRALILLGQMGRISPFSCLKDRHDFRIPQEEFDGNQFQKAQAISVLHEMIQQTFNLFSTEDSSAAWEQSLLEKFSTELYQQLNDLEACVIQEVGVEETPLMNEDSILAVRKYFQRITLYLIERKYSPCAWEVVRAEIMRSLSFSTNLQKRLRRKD
Excerpt: as §1

[7] = target: T6, recombinant human IFNα subtype α1 (human, UniProt P0DY56 24-189)
T6 construct: also called rIFNα1; IFNα1
T6 sequence (P0DY56 entry or part of it limits assumed): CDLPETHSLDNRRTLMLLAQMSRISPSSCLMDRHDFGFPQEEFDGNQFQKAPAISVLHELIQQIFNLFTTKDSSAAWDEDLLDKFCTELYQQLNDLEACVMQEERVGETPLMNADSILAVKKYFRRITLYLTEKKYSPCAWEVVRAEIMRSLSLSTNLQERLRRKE
Excerpt: as §1

- binding result [1]: no binding
- binding result [2]: no binding
- binding result [4]: no binding
- binding result [5]: no binding
- binding result [6]: no binding
- binding result [7]: no binding
B1: α8#139 mAb (antibody, IgG1, V domains shown)
VH: QVQLKQSGPGLVQPSQSLSITCTVSGFSLTSYGVHWIRQSPGKGLEWLGVIWSGGNTDYNAAFISRLSITKDNSKSQFFFKMNSLQAKDTAIYYCARGRGNYVPFTYWGQGTLVTVSA
VL: QIVLTQSPTIMSASLGERVTMTCTASSSVSSTYLHWYQQKPGSSPKLLIYSTSNLASGVPARFSGSGSGTSYSLTISNMEAEDAATYYCHQYHRSPPMTFGGGTKLEIK
notes: HRP-labelled where used as labelled antibody; also called FERM BP-11081
- binding result [3]: no binding

- binding result [1]: no binding
- binding result [2]: no binding
- binding result [4]: no binding
- binding result [5]: no binding
- binding result [6]: no binding
- binding result [7]: no binding
B2: α8Y36-2 mAb (antibody, IgG1, V domains shown)
VH: EVQLVESGGGLVQPGRSLKLSCAASGFTFSKYGMAWVRQAPTKGLEWVASISTGGYNTYYRDSVKGRFTISRDNAKNTQYLQMDSLRSEDTATYYCTRPPAFDHWGQGIMVTVSS
VL: DIKMTQSPSFLSASVGDRVTINCKASQNIDKYLNWYQQKLGKAPRLLMYNTNNLQTGIPSRFSGSGSTTDFTLTISSLQPEDVATYFCSHHSVRPYTFGAGTKLELK
notes: also called mAb-IFNα8Y36-2; FERM BP-11082
- binding result [3]: no binding
